US11859229B2, “Polyvinyl alcohol-degrading enzyme and process for producing the same” (Hayashibara Co., Ltd., priority 2017, dated 2024)

Columns and labels:
Assay type in all cases: biochemical
[1] = Assay for PVA-oxidizing activity (hydrogen peroxide formation, titanium reagent, A410)
Description: As shown in the above (1), the PVA-degrading enzyme of the present invention has an PVA-oxidizing activity, i.e., an activity of catalyzing the reaction of oxidizing PVA as substrate and forming hydrogen peroxide. For example, the PVA-oxidizing activity can be measured by the following method.
To 0.5 mL of a substrate solution prepared by dissolving PVA (Reagent grade polyvinyl alcohol, polymerization degree: 2,000, Nacalai Tesque Inc., Kyoto, Japan) into 100 mM sodium phosphate buffer (pH 7.0) to give a concentration of 2% (w/v), 15 µL of 2% (w/v) of sodium azide solution was added, and then 0.5 mL of an enzyme solution is further added and reacted with shaking at 27° C. for 60 min. After the 60 min-reaction, the reaction was stopped by mixing 0.32 mL of the reaction mixture to 0.8 mL of a titanium reagent, and the yellow color, produced by reacting hydrogen peroxide formed by the enzyme reaction and the titanium reagent, was measured by measuring the absorbance at 410 nm (A410) as an index. Separately, the enzyme solution was added to the substrate solution, and the resulting mixture is immediately mixed with the titanium reagent. The resulting mixture was similarly measured its color and the value was used as the value at the reaction zero minutes. Then, the amount of the formed hydrogen peroxide is determined and the PVA-oxidizing activity is calculated based on the following formula. It is known that the absorbance at 410 nm (A410) increases by “1” when 3.65 […]mole/mL of hydrogen peroxide is formed. Therefore, in the following Formula 1, the coefficient of “3.65” has been multiplied. One unit of the PVA-oxidizing activity is defined as the amount of enzyme that forms 1 […]mole of hydrogen peroxide per min under the above conditions. Titanium reagent is prepared by diluting 5% titanium sulfate (IV) solution, commercialized by Nacalai Tesque Inc., Kyoto, Japan, 25-fold with 10% (w/w) sulfuric acid.

[2] = Gel filtration HPLC of PVA degradation products (molecular weight); settings: 10 units of the enzyme on 1% (w/v) PVA for 20 hours; substrate PVA Mw about 10.6×10^4
Description: While, the molecular weight of the degraded product of PVA was analyzed by conventional gel filtration HPLC for a reaction mixture obtained by allowing 10 units of the enzyme to act on 1% (w/v) PVA solution for 20 hours. Gel filtration HPLC was carried out using the following conditions: • Column: “TSKgel […]-4000” (manufactured by Tosoh Corporation, Tokyo, Japan) • (Two columns were tandemly connected.); • Eluent: 50 mM phosphate buffer eluent (pH7.0); • Column temperature: 40° C.; • Flow rate: 0.5 mL/min; • Detector: “RID-20A”, a differential refractometer, manufactured by Shimadzu Corporation, Kyoto, Japan.
The molecular weights of PVA and the degradation products of PVA were respectively calculated based on a calibration curve of molecular weights prepared by subjecting pullulan standards for molecular weight measurement, commercialized by Hayashibara Co., Ltd., Okayama, Japan, to gel filtration HPLC in the same manner. The gel filtration HPLC chromatogram of the reaction mixture (symbol “b” in FIG. 11) is shown in FIG. 11 in comparison with that of PVA used as a substrate (symbol “a” in FIG. 11).

[3] = Thermal stability and pH stability (residual PVA-oxidizing activity); settings: 10 mM phosphate buffer, pH 7.0, 60 min
Description: To 0.5 mL of a substrate solution prepared by dissolving PVA (Reagent grade polyvinyl alcohol, polymerization degree: 2,000, Nacalai Tesque Inc., Kyoto, Japan) into 100 mM sodium phosphate buffer (pH 7.0) to give a concentration of 2% (w/v), 15 µL of 2% (w/v) of sodium azide solution was added, and then 0.5 mL of an enzyme solution is further added and reacted with shaking at 27° C. for 60 min. After the 60 min-reaction, the reaction was stopped by mixing 0.32 mL of the reaction mixture to 0.8 mL of a titanium reagent, and the yellow color, produced by reacting hydrogen peroxide formed by the enzyme reaction and the titanium reagent, was measured by measuring the absorbance at 410 nm (A410) as an index. Separately, the enzyme solution was added to the substrate solution, and the resulting mixture is immediately mixed with the titanium reagent. The resulting mixture was similarly measured its color and the value was used as the value at the reaction zero minutes. Then, the amount of the formed hydrogen peroxide is determined and the PVA-oxidizing activity is calculated based on the following formula. It is known that the absorbance at 410 nm (A410) increases by “1” when 3.65 […]mole/mL of hydrogen peroxide is formed. […]
In the two purified preparations of the PVA-degrading enzyme, PVA-A was used for investigating thermal stability and pH stability using PVA-oxidizing activity as an index according to the assay method. Thermal stability was determined by the steps of incubating the enzyme solution (in 10 mM phosphate buffer, pH 7.0) at various temperature for 60 min, cooling in water, and then measuring the residual enzyme activity. pH Stability was determined by the steps of incubating the enzyme solution in 100 mM buffer with different pH at 4° C. for 24 hours, adjusting pH to 7.0, and then measuring the residual enzyme activity. […] In FIG. 6, symbols, “●”, “▪”, “▴” and “♦”, mean values measured by using acetate buffer, phosphate buffer, glycine-NaOH buffer, and potassium chloride-NaOH buffer, respectively, for pH control.

B1: PVA-A: purified PVA-degrading hybrid enzyme from Pseudomonas sp. VT1B strain, amino acid sequence of SEQ ID NO: 2 (protein, listed as Pseudomonas sp.)
chain: AENWPMFGKNYENTRATSDTQISTANISTLNVVRRTTDGGITGTPTVVDGVAYYSDFSGYVKAVRVSDGVVLWRVRPQTTMLSPSPFVTADTVYVAGNNSYVYALNRANGAVRWTTQIETSPNSRISSSPIVVGNILIIGTGSYQVFLPATPMFRGRVAFLNATTGAILPYSTNMCPSASCGGGISVWSTAAIDESTRTGYIGTGQAYRDPAGPYSDALVAFNIDTGAIRWARQFLANDVYQLGGTLRYDYDVGAAPNLFVANGQRMVGVGGKDGTYRAFNRDTGAPIWNTPVGRGSAIGGVMQSTAYGDGRIYVTSNTSTIGSGRNDPVPATAEASALDAATGAPVWIRQLDAGGFGGVAYANGLMYASTWDGRLRVFNAANGNIVREVQVSPSRGAYVPAPTDGFPNGSAGGPVVYGNRVLMGYGWTWVLNINGGLTTMEATVGGGASQTVTLASSSDTYVQSGTPTTNYAYDVNLLARLADAEGLTRASFLQFPLTAVPAGTITSARLRLYGRHDAPTGTGQSVSVWPGTKTTTWSGPNVTYNNSSTETGVDFYATSSIATATVGITPQYYEWNVTDYVASRRSLGHATFGVAVNSAHQYRVTLNSADNTANRPELVVTVSGGTGSQLPGSCPSGFTARAGVNQGFMHNGVARGFVLNVPANVSTPRPVFVSLTGSVESTNENLGARGGAGALNNDGFLVIGPVRRCAGQDPNGAGTSVNGGTCNQAGTGGWNWNPWNEGRVFAAAGDPWKTAEGPDSQFLEAVVRCVAASYPVDSTRMYLGGISSGATMTHRALLFNSDFWAGGLPLSGEWYVSQDNGTAYPGADEFAARRQAVINNPTKIFQGRVGPLPLPATQSPMIVISMWGGANDIWYCGSTLCADYRPSTQAASNYFSALPNVVHVACSSSHGHQWPTQNRAAFNTWAATTLASHPKGTPASSFVLPPPPAGYSCRVGRYTDHYSGT
For B1, the Specific activity ([1]; PVA-oxidizing activity per mg protein at each purification step) was 3.2 U/mg, the “Total Activity (PVA-oxidizing activity)” value ([1]; at each purification step, from 4 L culture supernatant) was 5.4 U and the “weight average molecular weight (Mw) of the degraded products of PVA” value [2] was “about 4,400”. The “Thermal stability of PVA-oxidizing activity” value [3] was “up to 45 °C”.
